In patent US20260049126A1 (UCB, published 2026):
Read-outs that look alike come from different tables or passages of the source.

Tests used:
[1] = target: T1, Activin B (UniProt P09529 293-407); assay: SPR (Biacore T200), FST-Fab captured on anti-F(ab')2, Activin B as analyte, 1:1 model
T1 sequence (looked up): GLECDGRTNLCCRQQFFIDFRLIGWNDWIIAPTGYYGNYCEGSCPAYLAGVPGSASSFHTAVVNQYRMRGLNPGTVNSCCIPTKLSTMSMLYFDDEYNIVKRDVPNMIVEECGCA
Description: (§1) The binding kinetics of the fusion proteins to various targets (see below) were determined by surface plasmon resonance using a Biacore T200 (Cytiva). For each type of assay, kinetic parameters were determined using a 1:1 binding model using Biacore T200 Evaluation software (version 3.0).
(§2) For the assessment of binding to Activin A and Activin B (R&D Systems), a goat anti-human F(ab′)₂ fragment specific antibody (Jackson ImmunoResearch) was first immobilised on a CM5 Sensor Chip via amine coupling chemistry to a level of approximately 5000RU. Using a standard multi-cycle kinetic approach, each analysis cycle consisted of capture of FST-Fab to the anti-F(ab′)₂ surface followed by injection of analyte and finally surface regeneration using 60s injections of 50 mM HCl, and 5 mM NaOH. […] The binding response of a parallel blank surface was subtracted, and buffer blank injections were included to subtract instrument noise and drift.

[2] = target: T2, Activin A (UniProt P08476 311-426); assay: SPR (Biacore T200), FST-Fab captured on anti-F(ab')2, Activin A as analyte, 1:1 model
T2 sequence (looked up): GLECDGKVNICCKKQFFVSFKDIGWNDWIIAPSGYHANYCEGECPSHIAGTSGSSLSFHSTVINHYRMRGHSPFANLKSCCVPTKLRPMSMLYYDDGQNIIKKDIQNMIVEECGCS
Description: as §1, §2

[3] = target: GDF8 (myostatin) (UniProt O14793); assay: SPR (Biacore T200), GDF8 amine-coupled, FST-Fab as analyte, single-cycle kinetics
[4] = target: T3, GDF8 (myostatin) (UniProt O14793 267-375); assay: as above
Description: as §1
(§3) For the assessment of binding to GDF8 and GDF11 (R&D Systems), each one of GDF8 and GDF11 was immobilised by amine coupling chemistry to the surface of a CM5 sensorchip to achieve an immobilisation level of approximately 250RU. For both GDF8 and GDF11, analysis was conducted using a single-cycle kinetics approach with sequential 180s injections of FST-Fab at increasing concentrations (0.8, 4, 20, 100 and 500 nM) in HBS-EP+ running buffer (Cytiva) at 25° C. at a flow rate of 30 μl/min, followed by monitoring the dissociation for 1800s. The binding response of a parallel blank surface was subtracted, and a series of buffer blank injections were conducted to subtract instrument noise and drift.

[5] = target: T2, Activin A; assay: cell-based or functional assay
[6] = target: T3, GDF8 (myostatin); assay: cell-based or functional assay
[7] = target: T1, Activin B; assay: cell-based or functional assay
[8] = target: T4, GDF11 (UniProt O95390 299-407); assay: cell-based or functional assay
[9] = target: T5, Human Albumin (human, UniProt P02768 25-609); assay: SPR (Biacore T200), fusion protein captured on anti-F(ab')2, albumin as analyte, 1:1 model
T5 construct: Analyte in the Biacore albumin assay; also called human serum albumin; HSA
Description: as §1
For the assessment of binding to albumin: A goat anti-human F(ab′)2 fragment specific antibody (Jackson ImmunoResearch) was first immobilised on a CM5 Sensor Chip via amine coupling chemistry to a level of approximately 5000RU. Using a standard multi-cycle kinetic approach, each analysis cycle consisted of capture of the fusion protein to be tested to the anti-F(ab′)2 surface followed by injection of albumin and finally surface regeneration using 60s injections of 50 mM HCl, and 5 mM NaOH. […] The binding response of a parallel blank surface was subtracted and buffer blank injections were included to subtract instrument noise and drift.

[10] = target: T3, GDF8 (myostatin); assay: cell-based or functional assay; remark: listed apart in the source
[11] = target: T1, Activin B; assay: cell-based or functional assay; remark: listed apart in the source
[12] = target: T4, GDF11; assay: cell-based or functional assay; remark: listed apart in the source
[13] = target: T4, GDF11; assay: SPR (Biacore T200), GDF11 amine-coupled, FST-Fab as analyte, single-cycle kinetics
Description: as §1, §3

[14] = target: T2, Activin A; assay: cell-based or functional assay; remark: listed apart in the source
[15] = target: T3, GDF8 (myostatin); assay: cell-based or functional assay; remark: listed apart in the source
[16] = target: T1, Activin B; assay: cell-based or functional assay; remark: listed apart in the source
[17] = target: T4, GDF11; assay: cell-based or functional assay; remark: listed apart in the source
[18] = target: T2, Activin A; assay: cell-based or functional assay; remark: listed apart in the source
[19] = target: T2, Activin A; assay: cell-based or functional assay; remark: listed apart in the source
[20] = target: T3, GDF8 (myostatin); assay: cell-based or functional assay; remark: listed apart in the source
[21] = target: T1, Activin B; assay: cell-based or functional assay; remark: listed apart in the source
[22] = target: T4, GDF11; assay: cell-based or functional assay; remark: listed apart in the source

## FST315-Fab
[1]
  Kd: 69 pM
[2]
  Kd: 200 pM
[3]
  Kd: 150 pM

## FST288-Fab
[1]
  Kd: 71 pM
[2]
  Kd: 32 pM
[3]
  Kd: 240 pM

B1: FST315HBM-Fab (other)
heavy: GNCWLRQAKNGRCQVLYKTELSKEECCSTGRLSTSWTEEDVNDNTLFKWMIFNGGAPNCIPCKETCENVDCGPGKACRMNAANKPRCVCAPDCSNITWKGPVCGLDGKTYRNECALLKARCKEQPELEVQYQGRCKKTCRDVFCPGSSTCVVDQTNNAYCVTCNRICPEPASSEQYLCGNDGVTYSSACHLRKATCLLGRSIGLAYEGKCIKAKSCEDIQCTGGKKCLWDFKVGRGRCSLCDELCPDSKSDEPVCASDNATYASECAMKEAACSSGVLLEVKHSGSCNSISEDTEEEEEDEDQDYSFPISSILEWSGGGGSEVQLLESGGGLVQPGGSLRLSCAVSGIDLSNYAINWVRQAPGKGLEWIGIIWASGTTFYATWAKGRFTISRDNSKNTVYLQMNSLRAEDTAVYYCARTVPGYSTAPYFDLWGQGTLVTVSSASTKGPSVFPLAPSSKSTSGGTAALGCLVKDYFPEPVTVSWNSGALTSGVHTFPAVLQSSGLYSLSSVVTVPSSSLGTQTYICNVNHKPSNTKVDKKVEPKSC
light: DIQMTQSPSSVSASVGDRVTITCQSSPSVWSNFLSWYQQKPGKAPKLLIYEASKLTSGVPSRFSGSGSGTDFTLTISSLQPEDFATYYCGGGYSSISDTTFGGGTKVEIKRTVAAPSVFIFPPSDEQLKSGTASVVCLLNNFYPREAKVQWKVDNALQSGNSQESVTEQDSKDSTYSLSSTLTLSKADYEKHKVYACEVTHQGLSSPVTKSFNRGEC
notes: paired with the Fab light chain; also called FST-Fab1; FST-Fab 1
[1]
  Kd: 11 pM
[4]
  Kd: 2300 pM
[5]
  IC50 (geomean), Smad2/3 reporter gene assay, HEK-Blue TGFb cells: 100 pM
[6]
  IC50 (geomean), Smad2/3 reporter gene assay, HEK-Blue TGFb cells: 1400 pM
[7]
  IC50 (geomean), Smad2/3 reporter gene assay, HEK-Blue TGFb cells: 460 pM
[8]
  IC50 (geomean), Smad2/3 reporter gene assay, HEK-Blue TGFb cells: 4240 pM
[9]
  Kd: 2600 pM
[2]
  Kd: 11 pM
[10]
  IC50 (read off the curve): ~1000 pM
[11]
  IC50 (read off the curve): ~600 pM
[12]
  IC50 (read off the curve): ~2000 pM
[13]
  Kd: 1250 pM
[14]
  fold potency against the parent FST315WT, Smad2/3 reporter gene assay: 3 fold
[15]
  fold potency against the parent FST315WT, Smad2/3 reporter gene assay: 2 fold
[16]
  fold potency against the parent FST315WT, Smad2/3 reporter gene assay: 3 fold
[17]
  fold potency against the parent FST315WT, Smad2/3 reporter gene assay: 2 fold

B2: FST315WT (other)
chain: GNCWLRQAKNGRCQVLYKTELSKEECCSTGRLSTSWTEEDVNDNTLFKWMIFNGGAPNCIPCKETCENVDCGPGKKCRMNKKNKPRCVCAPDCSNITWKGPVCGLDGKTYRNECALLKARCKEQPELEVQYQGRCKKTCRDVFCPGSSTCVVDQTNNAYCVTCNRICPEPASSEQYLCGNDGVTYSSACHLRKATCLLGRSIGLAYEGKCIKAKSCEDIQCTGGKKCLWDFKVGRGRCSLCDELCPDSKSDEPVCASDNATYASECAMKEAACSSGVLLEVKHSGSCNSISEDTEEEEEDEDQDYSFPISSILEW
[5]
  IC50 (geomean), Smad2/3 reporter gene assay, HEK-Blue TGFb cells: 310 pM
[6]
  IC50 (geomean), Smad2/3 reporter gene assay, HEK-Blue TGFb cells: 3080 pM
[7]
  IC50 (geomean), Smad2/3 reporter gene assay, HEK-Blue TGFb cells: 1570 pM
[8]
  IC50 (geomean), Smad2/3 reporter gene assay, HEK-Blue TGFb cells: 8370 pM
[18]
  IC50 (read off the curve): ~400 pM
[10]
  IC50 (read off the curve): ~3000 pM
[11]
  IC50 (read off the curve): ~2000 pM
[12]
  IC50 (read off the curve): ~6000 pM

B3: FST288WT (other)
chain: GNCWLRQAKNGRCQVLYKTELSKEECCSTGRLSTSWTEEDVNDNTLFKWMIFNGGAPNCIPCKETCENVDCGPGKKCRMNKKNKPRCVCAPDCSNITWKGPVCGLDGKTYRNECALLKARCKEQPELEVQYQGRCKKTCRDVFCPGSSTCVVDQTNNAYCVTCNRICPEPASSEQYLCGNDGVTYSSACHLRKATCLLGRSIGLAYEGKCIKAKSCEDIQCTGGKKCLWDFKVGRGRCSLCDELCPDSKSDEPVCASDNATYASECAMKEAACSSGVLLEVKHSGSCN
[5]
  IC50 (geomean), Smad2/3 reporter gene assay, HEK-Blue TGFb cells: 140 pM
[6]
  IC50 (geomean), Smad2/3 reporter gene assay, HEK-Blue TGFb cells: 730 pM
[7]
  IC50 (geomean), Smad2/3 reporter gene assay, HEK-Blue TGFb cells: 450 pM
[8]
  IC50 (geomean), Smad2/3 reporter gene assay, HEK-Blue TGFb cells: 770 pM
[19]
  IC50 (read off the curve): ~400 pM
[20]
  IC50 (read off the curve): ~2000 pM
[21]
  IC50 (read off the curve): ~500 pM
[22]
  IC50 (read off the curve): ~2000 pM
